According to patent US20130230533A1 (Regeneron, published 2013):
Residue numbers refer to the chain shown, from its start. In names and notes the source's numbering stands.

T1: human CD48 (on primary human peripheral blood mononuclear cells) (human, UniProt P09326 27-220)
T1 sequence: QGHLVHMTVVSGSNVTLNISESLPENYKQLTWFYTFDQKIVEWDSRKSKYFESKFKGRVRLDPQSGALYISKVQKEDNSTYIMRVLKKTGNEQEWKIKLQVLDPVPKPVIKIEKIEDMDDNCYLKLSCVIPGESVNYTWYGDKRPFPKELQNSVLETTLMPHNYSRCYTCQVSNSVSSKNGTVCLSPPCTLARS

T2: biotinylated dimeric human CD48 protein expressed as a fusion with mouse IgG2a Fc (human, biotinylated)
T2 construct: also called bio-hCD48-mFc; Dimeric human CD48-mFc
T2 chain: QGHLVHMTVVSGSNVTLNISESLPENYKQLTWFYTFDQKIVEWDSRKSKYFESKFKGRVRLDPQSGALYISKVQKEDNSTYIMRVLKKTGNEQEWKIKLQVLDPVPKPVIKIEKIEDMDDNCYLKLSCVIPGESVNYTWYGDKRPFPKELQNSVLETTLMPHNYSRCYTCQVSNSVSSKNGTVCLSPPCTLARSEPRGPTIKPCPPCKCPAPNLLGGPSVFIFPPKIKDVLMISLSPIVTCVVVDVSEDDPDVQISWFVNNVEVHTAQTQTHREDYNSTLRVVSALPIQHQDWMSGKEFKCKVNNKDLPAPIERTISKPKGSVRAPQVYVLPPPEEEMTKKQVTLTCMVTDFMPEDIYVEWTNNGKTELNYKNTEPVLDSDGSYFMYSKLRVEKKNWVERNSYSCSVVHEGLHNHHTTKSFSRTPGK

T3: monomeric monkey CD48 expressed with a tag consisting of 2 myc and one 6-His epitopes (monkey)
T3 construct: also called mfCD48-mmH; Monomeric monkey CD48-mmH
T3 chain: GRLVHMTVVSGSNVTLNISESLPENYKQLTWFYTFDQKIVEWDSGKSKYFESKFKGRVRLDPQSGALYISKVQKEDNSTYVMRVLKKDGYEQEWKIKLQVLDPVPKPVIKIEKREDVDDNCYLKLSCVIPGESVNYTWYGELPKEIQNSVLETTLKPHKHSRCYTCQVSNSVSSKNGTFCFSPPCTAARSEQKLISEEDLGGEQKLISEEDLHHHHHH

B1: H4H1772P (antibody, human IgG4, V domains shown)
VH: EVQLVESGGGLVQPGGSLRLSCAASGFTFSSYWMSWVRQAPGKGLEWVANIMRDGSEKYYVDSVKGRFTISRDNAKNSLYLQMNSLRGEDTAVYYCARERGFYTNYGNWFDPWGQGTLVTVSS
VL: DIVMTQSPLSLTVTPGESASISCRSSQSLLHSYGYNSLDWYLQKPGQSPQFLIYLVSNRASGVPDRFSGSGSGTDFTLKISRVEAEDVGVYYCMQVLQTPYTFGQGTKLEIK
notes: Human IgG4 Fc (H4H)
B2: H4H1775P (antibody, human IgG4, V domains shown)
VH: QVQLVESGGGVVQPGRSLRLSCAASGFTFSNYGMHWVRQAPGKGLEWVAVIWYDESGKHYADSVKGRFTISRDNSQNTLYLQMTSLRAEDTAVYYCARDRWTYSHYFEYWGQGTLVTVSS
VL: DIQMTQSPSSVSASVGDRVTITCRASQDISSWVAWYQQKPGKAPKLLIYAASSLQSGVPSRFSGSGSGTDFTLTISSLQPEDFATYYCQQANSFPRTFGQGTKVEIK
notes: Human IgG4 Fc (H4H)
B3: H4H1707N (antibody, V domains shown)
VH: EGQLLESGGGLAQPGGSLRLSCAASGITFGRYAMSWVRQAPGKGLEWVSLISGSGGSTYHADSVKGRFTISRDNSKNTLYLQMNSLRAEDTAVYYCAIYNNYNWFDPWGQGTLVTVSS
VL: EIVLTQSPGTLSLSPGERATLSCRASQSVSSNYLAWYQQKPGQAPRLLIYDASSRATDIPDRFSGSGSGTDFTLTISRLEPEDFAVYYCQQYGSSPRTFGQGTKVEIK
notes: Human IgG4 Fc (H4H) form of 1707N
B4: H4H1763N (antibody, human IgG4, V domains shown)
VH: QIQLVQSGAEMKRPGTSVKVSCKASGYTFTSYGINWVRQAPGQGLEWMGWISAYNGDTNYAQKLQGRVTMTTDTSTTTAYMEVRSLRSDDTAVYYCARFLTGTKDYYYGMDVWGQGTTVTVSS
VL: DIQMTQSPSSLSASVGDRVTITCQASQDISNFLNWYQQKPGKAPDLLINDASILETGVPSRFSGSGSGTDFTLTINNLQPEDIATYYCQQYDNLPLTFGGGTKVEIK
notes: Human IgG4 Fc (H4H) form of 1763N
B5: H4H1764N (antibody, human IgG4, V domains shown)
VH: QVQLVESGGGVVQPGRSLRLSCAASGFTFSDYGMHWVRQAPGKGLEWVAVIWNDGSNKNYADSVKGRFSISSDSSKNTLYLHMNSLRAEDTAVYYCARSLYSTSPWYFDLWGRGTLVTVSS
VL: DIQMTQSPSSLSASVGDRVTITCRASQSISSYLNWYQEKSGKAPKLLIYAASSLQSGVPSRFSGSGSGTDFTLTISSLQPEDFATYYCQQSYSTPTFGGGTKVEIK
notes: Human IgG4 Fc (H4H) form of 1764N
B6: H4H1774P (antibody, human IgG4, V domains shown)
VH: B2 VH with G57S, H59Y, A61T
VL: B2 VL with D28G
notes: Human IgG4 Fc (H4H)
B7: H4H1779P (antibody, human IgG4, V domains shown)
VH: B2 VH with G57S
VL: B2 VL
notes: Human IgG4 Fc (H4H)
B8: H4H1778P (antibody, human IgG4, V domains shown)
VH: B2 VH with G57S, H59Y, A61T
VL: B2 VL with D28G
notes: Human IgG4 Fc (H4H)
B9: H4H1781P (antibody, human IgG4, V domains shown)
VH: B2 VH with E55D, G57N, H59N, Q76K, T84N, A88V, Y106F
VL: B2 VL with D28G, V33L, K45N, S63G, T72S, S77G
notes: Human IgG4 Fc (H4H)

The binders below were run against T1, human CD48 (on primary human peripheral …) (assay: cell-based or functional assay).

Row | Binder | Inhibition of IFN-gamma Release IC50; Donor 10 [Molar] | Inhibition of IFN-gamma Release IC50; Donor 11 [Molar] | Inhibition of IFN-gamma Release IC50; Donor 8 [Molar] | Inhibition of IFN-gamma Release IC50; Donor 9 [Molar]
1 | B1 | 1.4e-12 | 8.6e-11 |  | 
2 | B2 | 2e-11 |  | 3.1e-12 | 2.3e-12
3 | B3 |  |  |  | 5.1e-11
4 | B4 | 1e-12 | 3.4e-12 | 8.6e-12 | 9.3e-12
5 | B5 | 5.1e-12 | 2.3e-11 | 5.3e-12 | 3.1e-11

Biological target: T1, human CD48 (on primary human peripheral …)
Assay: cell-based or functional assay
Remark: another data set of the same source

Row | Binder | Inhibition of IFN-gamma Release IC50; Donor 6 [Molar] | Inhibition of IFN-gamma Release IC50; Donor 7 [Molar]
6 | B1 | 2e-12 | 2.2e-11
7 | B6 | 2.5e-11 | 9.5e-12
8 | B2 |  | 5.1e-12
9 | B7 | 1.7e-12 | 1.5e-11
10 | B8 | 9.8e-12 | 
11 | B9 | 3.6e-11 | 1.5e-11

Biological target: T2, biotinylated dimeric human CD48 protein …
Assay: competition ELISA; blocks bio-hCD48-mFc binding to coated h2B4-mFc
Protocol: (§1) The ability of human anti-CD48 monoclonal antibodies to block human CD48 and monkey CD48 binding to the human cognate ligand, human 2B4, was measured using a competition sandwich ELISA (Table 8). Constant amounts of biotinylated dimeric human CD48 protein expressed as a fusion with mouse IgG2a Fc (“bio-hCD48-mFc” [SEQ ID NO: 387]) or monomeric monkey CD48 expressed with a tag consisting of 2 myc and one 6-His epitopes (“mfCD48-mmH” [SEQ ID NO: 386]) were separately titrated with varying amounts of antibodies. These antibody-protein complexes were incubated (1 hr, 25° C.) before being transferred to microtiter plates coated with a dimeric construct expressing the human 2B4 receptor fused to a either human IgG1 (h2B4-hFc [R&D Systems, Inc., Minneapolis, Minn., Cat. No. 1039-2B]) or mouse IgG2a Fc (h2B4-mFc [SEQ ID NO: 389). After a 1 hr at 25° C. the wells were washed and bound human CD48 was detected with streptavidin conjugated with horse-radish peroxidase (HRP), and monkey CD48 was detected with an HRP conjugated anti-myc polyclonal antibody. The ELISA was developed with a TMB solution to produce a colorimetric reaction and quenched with sulfuric acid before reading absorbance at 450 nm on a Victor X5 plate reader. Sigmoidal dose response curves were fit to the data using Prism™ software. […] (Tables 8 and 9, NB=no binding observed)

Row | Binder | IC50 [pM]
12 | B1 | 14
13 | B6 | 25
14 | B2 | 44
15 | B7 | 16
16 | B3 | 22
17 | B4 | 7.4
18 | B5 | 76
19 | B8 | 56
20 | B9 | 18

Biological target: T1, human CD48 (on primary human peripheral …)
Assay: cell-based or functional assay
Remark: another data set of the same source

Row | Binder | IC50 of IFNγ release, MLR; D1 [pM] | IC50 of IFNγ release, MLR; D3 [pM] | IC50 of IFNγ release, MLR; D4 [pM] | IC50 of IFNγ release, MLR; D5 [pM] | IC50 of IFNγ release, MLR; D6 [pM] | IC50 of IFNγ release, MLR; D8 [pM] | IC50 of IFNγ release, MLR; D9 [pM] | IC50 of IFNγ release, MLR; D10 [pM] | IC50 of IFNγ release, MLR; D11 [pM] | IC50 of IFNγ release, MLR; D12 [pM]
21 | B4 | ~10 | ~6.4 | 210 | ~27 | 23 | ~3700 | ~4100 | ~84 | 73 | ~56

Same assay, conditions: not given

Row | Binder | IC50 of IFNγ release, MLR; D13 [pM] | IC50 of IFNγ release, MLR; D14 [pM] | IC50 of IFNγ release, MLR; D15 [pM] | IC50 of IFNγ release, MLR; D16 [pM]
22 | B4 | 92 | 63 | ~0.059 | 7.6

Biological target: T3, monomeric monkey CD48 expressed with a …
Assay: competition ELISA; blocks mfCD48-mmH binding to coated h2B4-mFc
Protocol: as §1

Row | Binder | IC50 [pM]
23 | B1 | 4.4
24 | B6 | 16
25 | B2 | 43
26 | B7 | 5.7
27 | B3 | 45
28 | B4 | 7.2
29 | B5 | 160
30 | B8 | 8.4
31 | B9 | 8.1

Biological target: T1, human CD48 (on primary human peripheral …)
Assay: cell-based or functional assay
Remark: another data set of the same source

Row | Binder | % Blockade of IFNγ release, MLR; D2 [%] | % Blockade of IFNγ release, MLR; D3 [%] | % Blockade of IFNγ release, MLR; D4 [%] | % Blockade of IFNγ release, MLR; D5 [%] | % Blockade of IFNγ release, MLR; D6 [%] | % Blockade of IFNγ release, MLR; D7 [%] | % Blockade of IFNγ release, MLR; D8 [%] | % Blockade of IFNγ release, MLR; D9 [%] | % Blockade of IFNγ release, MLR; D1 [%]
32 | B1 | 65 | 62 | 39 | 62 | 63 | 58 | 25 | 59 | 
33 | B2 | 77 | 87 | 37 | 70 | 72 | 69 | 22 | 60 | 42
34 | B3 | 87 | 78 | 20 | 62 | 77 | 62 | 42 | 60 | 66
35 | B4 | 89 | 68 | 52 | 63 | 75 | 48 | 30 | 53 | 59
36 | B5 | 46 | 80 |  | 75 | 59 | 48 |  |  | 69
